The text below walks through data of patent publication US20210122814A1.

The chains are these.
B1: Ab21 (antibody, V domains shown)
VH: EVQLVESGGGLVQPGGSLRLSCAASGFTFSSFSMDWVRQAPGKGLEWVSYISPDASTIYYADSVKGRFTISRDNAKNSLYLQMNSLRAEDTAVYYCARGVLDYGDMLDPWGQGTLVTVSS
VL: DIQMTQSPSSLSASVGDRVTITCQASQDITNYLNWYQQKPGKAPKLLIYDASNLETGVPSRFSGSGSGTDFTFTISSLQPEDIATYYCQQADNHPPWTFGGGTKVEIK
B2: Ab22 (antibody, V domains shown)
VH: B1 VH with S30G, D35N, S52H, P53S
VL: B1 VL
B3: Ab33 (antibody, V domains shown)
VH: B1 VH with D35N, D54S, S56D, S78T, R98H
VL: B1 VL
B4: Ab26 (antibody, V domains shown)
VH: B1 VH with S78T
VL: B1 VL
B5: Ab24 (antibody, V domains shown)
VH: B1 VH with G16R, S33A, D35Y
VL: B1 VL
B6: Ab23 (antibody, V domains shown)
VH: B1 VH with D35N, D54S, S56D, S78T
VL: B1 VL
B7: Ab25 (antibody, V domains shown)
VH: B1 VH with S30G
VL: B1 VL
B8: Ab30 (antibody, V domains shown)
VH: B1 VH with V100T
VL: B1 VL
B9: Ab31 (antibody, V domains shown)
VH: B1 VH with S78T, G99A
VL: B1 VL
B10: Ab29 (antibody, V domains shown)
VH: B1 VH with G16R, S33A, D35N, D62G, A97V, G99A
VL: B1 VL
B11: Ab28 (antibody, V domains shown)
VH: B1 VH with A97V
VL: B1 VL
B12: Ab27 (antibody, V domains shown)
VH: B1 VH with S31F, F32Y, S33A, D35N
VL: B1 VL
B13: Ab32 (antibody, V domains shown)
VH: B1 VH with D35N, D54S, S56D, S78T, L101W, Y103M
VL: B1 VL
B14: Ab4 (antibody, IgG4, V domains shown)
VH: B1 VH with F32Y, D35N, P53S, D54S, A55S
VL: B1 VL

Substitutions are numbered along the chain they refer to.

In the first assay the target is Cell-associated proTGFβ1 (hGARP-proTGFβ1 and hLRRC33-proTGFβ1). Put plainly: BLI (Octet). A general note: Biolayer interferometry detects binding as a change in optical thickness at a sensor tip.
The molecule B1 registered a Cell AVRG (average KD) of 0.644 nM.
On the same count and under the same terms, under B2 stands 0.695 nM; under B3, 0.302 nM; under B4, 0.492 nM.
Still for that read-out and setting: with B5 the figure was 0.537 nM; with B6, 0.897 nM.
The same measure, in the same setting: under B7 stands 0.449 nM; under B8, 0.684 nM; under B9, 0.495 nM.
In turn, B10 had a Cell AVRG (average KD) of 0.304 nM.
In the case of B11, the Cell AVRG (average KD) turned out to be 0.603 nM.
Same read-out and setting: with B12 the figure was 0.361 nM.
The same measure, in the same setting: under B13 stands 0.597 nM.

A further assay has as its target Matrix-associated proTGFβ1 (hLTBP1-proTGFβ1 and hLTBP3-proTGFβ1). Description: BLI (Octet).
As for B1, the ECM AVRG (average KD) turned out to be 0.246 nM.
Same read-out and setting: with B2 the figure was 0.324 nM.
Still for that read-out and setting: with B3 the figure was 0.145 nM; with B4, 0.197 nM.
The same measure, in the same setting: under B5 stands 0.222 nM; under B6, 0.443 nM.
The molecule B7 showed an ECM AVRG (average KD) of 0.184 nM.
The same measure, in the same setting: under B8 stands 0.296 nM.
The molecule B9 gave an ECM AVRG (average KD) of 0.208 nM.
Same read-out and setting: under B10 stands 0.155 nM; under B11, 0.328 nM.
For the molecule B12, the ECM AVRG (average KD) came out at 0.208 nM.
On to B13, for which the ECM AVRG (average KD) was found to be 0.242 nM.

For another assay, the target named is Cell-associated proTGFβ1 (hGARP-proTGFβ1 and hLRRC33-proTGFβ1). Put plainly: MSD-SET, hIgG4.
Take B2: the Cell AVRG (average KD) worked out at 0.114 nM.
The same measure, in the same setting: under B14 stands 2.3 nM; under B3, 0.027 nM.
Still for that read-out and setting: with B4 the figure was 0.072 nM; with B5, 0.1 nM.
The molecule B8 returned a Cell AVRG (average KD) of 0.081 nM.
The same measure, in the same setting: with B9 the figure was 0.058 nM.
The same measure, in the same setting: with B10 the figure was 0.024 nM; with B13, 0.051 nM.

A further assay addresses Matrix-associated proTGFβ1 (hLTBP1-proTGFβ1 and hLTBP3-proTGFβ1). Put plainly: MSD-SET, hIgG4.
In the case of B2, the ECM AVRG (average KD) was 0.042 nM.
On the same count and under the same terms, with B14 the figure was 5.05 nM; with B3, 0.009 nM.
Turning to B4, the ECM AVRG (average KD) came out at 0.026 nM.
B5 came in with an ECM AVRG (average KD) of 0.023 nM.
With B8, the ECM AVRG (average KD) came to 0.029 nM.
On the same count and under the same terms, with B9 the figure was 0.017 nM.
On the same count and under the same terms, under B10 stands 0.012 nM; under B13, 0.032 nM.

The target in the next assay is Cell-associated proTGFβ1 (hGARP-proTGFβ1 and hLRRC33-proTGFβ1). Description: BLI (Octet); Cell AVRG over ECM AVRG.
Take B1: the G/D (fold bias) was determined as 2.61 fold.
On the same count and under the same terms, with B2 the figure was 2.15 fold.
The same measure, in the same setting: with B3 the figure was 2.08 fold; with B4, 2.5 fold.
Regarding B5, the G/D (fold bias) was 2.42 fold.
Still for that read-out and setting: under B6 stands 2.03 fold; under B7, 2.43 fold.
Still for that read-out and setting: with B8 the figure was 2.31 fold; with B9, 2.38 fold.
On the same count and under the same terms, with B10 the figure was 1.97 fold.
In the case of B11, the G/D (fold bias) was found to be 1.84 fold.
On the same count and under the same terms, under B12 stands 1.74 fold.
With B13, the G/D (fold bias) worked out at 2.47 fold.

The target is the same in a further assay. Put plainly: MSD-SET, hIgG4; Cell AVRG over ECM AVRG.
Take B2: the G/D (fold bias) came to 2.71 fold.
Still for that read-out and setting: under B14 stands 0.42 fold; under B3, 3 fold; under B4, 2.77 fold.
Still for that read-out and setting: with B5 the figure was 4.35 fold.
On the same count and under the same terms, with B8 the figure was 2.8 fold.
As for B9, the G/D (fold bias) came to 3.41 fold.
Still for that read-out and setting: with B10 the figure was 2 fold; with B13, 1.6 fold.
